Assay: yeast display, Sf9 membrane polyspecificity reagent, FACS + sequencing; frameworks hold sequencing errors
How it was run: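 After 36–48 hours of galactose induction, yeast (Saccharomyces cerevisiae BJ5465) displaying a synthetic nanobody library were stained at 4 °C for 1 hour with 10% biotinylated, detergent-solubilized Sf9 membrane reagent. Streptavidin microbeads enriched the stained cells before FACS sorting into low and high (top ~1%) gates on anti-HA and streptavidin fluorescence. Each clone's polyreactivity label reflects its gate of origin.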

| Sequence | polyreactivity (PSR sort gate) |
| --- | --- |
| AVQLEESRGGLVQAGGSLRLSCAASGFIFTVNAMGWSRQAPGKERELVAAITQSGGNTSYADSVKGRFTFSRDNAKNTFYLQMNSLKPEDTAVYYCAADDVDVEHPASWDDYDSWGQGTQVTVSS | low polyreactivity |
| EEELVESGGGLVQAGGSLRLSCAASGRIFGPYAMGWYRQAPGKEREFVAAISGGGGNTYYADSVKGRFTISRDNAKNTVNLQMNSLKPEDTAVYYCAAQHVPRWWWYAPVKYDYWGQGTQVTVSS | low polyreactivity |
| EEELVESGVGLVQAGGSLRLSCAASGRTFARNAMGWYRQAPGKERELVAGINFSGGNTYYADSVKGRFTISRDNAKNTVYLQMNSLKPEDTAVYYCAARRYWEGDYWGQGTQVTVSS | low polyreactivity |
| EVQLVESGGGLVQAGGSLRISCAASGRIFNFYAMGWYRQAPGKEREFVASIRSNVGSTYYADSVKGRFTISRDNAKNTVYLQMNSLKPEDTAVYYCNARYYWYRGYDYWGQGTQVTVSS | high polyreactivity |
| EVQLVESGGGLVQAGGSLRLSCAASGRIFVHYAMGWYRQAPGKERELVAAITSGSSTNYADSVKGRFTISRDNAKNTVYLQMNSLKPEDTAVYYCAADYSVHRVRDRWFDYWGQGTQVTVSS | low polyreactivity |
| EVQLVESGGGLVQAGGSLRLSCAASGSTFNWNDMGWYRQAPGKEREFVASISTTGSTNYADSVKGRFTISRDNAKNTVYLQMNSLKPEDTAVYYCNAEYGWYYWYGYWFYEGDYWGQGTQVTVSS | high polyreactivity |
| EVQLVESGGGLVQAGGSLRLSFAASGFTFRYYAMGWYRQAPGKERELVASITGGGRTYYADSVKGRFTISRDNAKNTVYLQMNSLKPEDTAVYYCATLLAYRLGSGYDSWGQGTQVTVSS | high polyreactivity |
| EVQLVESGGGLVQPGGSLRLSCAASGYIYSRYRMGWYRQAPGKGREFVAAISGGSSTNYADSVKGRFTISRDNSKNTVYLQMNSLRAEDTAVYYCAAYKIDIDPRVYWGHGTQVTVSS | low polyreactivity |
| EVQLVESGGGLVQPGGSLRLSCAASGYIYSRYRMGWYRQAPGKGREFVAAISGGSSTNYADSVKGRFTISRDNSTNTVYLQMNSLRAEDTAVYYCAAYKIDSDPRVYWGQGTQVTVSS | low polyreactivity |
| EVQLVESGGGLVQPGGSLRLSCASSGYIYRRYRMGRYRQAPGKGREFVAAISGGSSTNYADSVKGRFTISRDNSKNTLYLQMKSLRAEDTAVYYCEGYKIDSDPRVYWGQGTQVTVSS | low polyreactivity |
| EVQLVESRGGLVQAGGSLRLSCAASGRIFRVYTMGWYRQAPGKERELVAAISRGGTTTYADSVKGRFTISCDNAKNTVYLQMNSLKPEDTAVYYCNARGWFRGEFDYWGQGTQVTVSS | high polyreactivity |
| EVQLVESVGGLVHAGGSLGLSFAASGSIFDRNAMGWYRQAPGKERELVAAISVSGGSTYYADSVKGRFTISRDNAKNTVYLQMNSLKPEDTAVYYCDKAGRYANLPYGYWGHGTQVTVSS | high polyreactivity |
| HAQLQESGGGLVQAGGSLRRSCAASGSIFRFSGMGWYRRAPGKERELVASIGFGSITYYADRVKGRFTMSRDNANNTVYLQKNSLKPEDTAVDYCAVQVQDESWLDYWGQGTQVTVSC | low polyreactivity |
| HCQLVESGGVLVQEGGSLRISCAASGYTFTPYAMGWYRQAPGKEREFVAGITWRTGRTYYADSVKGRFTISRDIAKNTVYLQMISLKPEDTAVYYCNKYHQRRYYWSYDYWGQGTQVTVSS | low polyreactivity |
| HDQLVETGGGLVQAGGSLRLSCAASGRTYSKYAMGRYRQPPGKERELVAAITSGGGTYYADSVKGRFTISRDNAKNTVYVQMNSLSPEDSAVYYCAVSVTTVSTHDYWGQGTQVTVSS | low polyreactivity |
| HEQQQDSGAGLVQAGGSLRLSCAASGNIFDSPRMGWYRQATGKEREFVATIGSGTITNYADSVKGRFTISRDNAKNTVYLQMNSLKPEDTAVYYCAAEFYLRRFKVTKRYWFDYWGQGTQVTVSS | low polyreactivity |
| HGQLVESGGGLVHAGGSLRLSCAASGSTFAIYALGWYREAPGKERELVAGITGRGTSTYYADSVKGRFTISRDNAKNTVYLQMNSLKPEDTAVYYCNKVRYAFRYDYWGQGTQVTVSS | high polyreactivity |
